Test results reported in the DeepSol protein solubility set.

Test: soluble on expression in E. coli; label from the status in PepcDB or PDB records

Sequence | soluble on expression in E. coli
TRDFMWRLGLNLTHYKNVVTDLPLKDMPVSGVHKLAVGRSVYDFYMKKWAGVDPENGDPLWYKNVKDANNKITGRTTTNDYAQADYYYTGKSSLPKVYGGFNTAFSYKGFELSTIFAYSIGNYIVDRDVTMLWHNGSSTGRAWSTEILNRWTPENRYTDVPALKTVSNSWNANSTRNLFNNSFLRMKNITLSYNFPQPMIKKISLNSLQLFVQADNLLTVSKNQGLDPEQDISGLTYYRYPAMRSISGGINVSF | not soluble
AHHHHHHGSENPYEIVGVVAREILDSRGNPTVEVDVYTHVGMGRAAVPSGASTGTHEALELRDGGKRYHGKGVRRAVENVNKIIAPELIGMDVRWQREIDALLLELDGTENKSNVGANAILAVSLAVAKAAANSLELPLYQYLGGVNAYVLPVPLSNVINGGVHAGNDLDFQEFMIMPIGADSFREAIRWVSETYHVLKKVIMEKYGKNAVNVGDEGGFAPPMKEVTEPLDVLIKAIEEAGYKPGDEIALALDVASSELFNEETGKYVVGGKEYDRGELLELYKDLTSTYPIVSIEDPFHEEDWEGFVMITKELGHKVQIVGDDLFVTNPKRLRKGIELGAANALLLKVNQIGTLSEAMDAAFTAFRAGYGVIVSHRSGETEDATIADLAVALNAGQIKTGAPARSDRNAKYNQLIRIEEELEGVAVYAGKRFRKVFF | soluble
MIQSDLDLFGPQPQRLASHTVLLPGFALAETEALLDALRPVLRAAPFRHMYTPGGLRMAVALTNCGTLGWVSDQHGYRYSPSDPVSGQPWPALPPVLLALASRAAAMAGFDGFVPDACLVNHYLPGTRLSLHQDRDEQDFGQPIVSVSLGLPAVFLFGGLQRADKAQRIALSHGDVLVWGGVDRLRFHGVLPIKPGVHPRLGERRINLTLRKAGALEHHHHHH | not soluble
QLPPGTFIPYGLSLESATGVNFLTPTSFWKQTRMHASKRKLLRNMELLIIDEVSMLRADTLDLIDFVLRRVRSNPRSFGGVQVLFIGDLMQLPPVVKPHEWE | not soluble
MGSDKIHHHHHHMKNLFLFCRAGYEKECAAEIQQRAAEMNVGGFVKTTNNDAYVIYQCFEDDGADTLAKMLPLNSLIFARQMFAASELHSDLPEQDRVGPLVASLLEADVTKCGELRVETPDTNEAKELSAFCRKFTVPLRQGLKKVGVLLDKENGRRPIIHVCFVGPGKAYVGYSLSNNSSPHFMGIPRLRMAADAPSRSSLKLDEAFGAFLTKEEQEMRCRSGLKAVDLGACPGGWTYQLVRRGMMVAAVDNGPMDEKLMETGQVKHYRADGFRFEPPRKNIYWLVCDMVEKPSRVAELMEAWAINGWFKEAIFNLKLPMKSRYKEVRVILDTMGEIFKENEIDYRLQCKHLYHDRDEVTVHLWIFPEKGVSYAEMG | not soluble
MKMKDELINLIINEGCIKFGHFVLTSGKESNYYIDIKSLITNPKALRIIAKLIKEKAEELNLNYDKIAGPELGAVPIATALSLETNKPLLIVRKKKKEHGTGKVIEGNVQKGDKVLLVEDVTTTGGSVIRAAKILREHGADVVGIFVVVDREEGAKENIEKEGFKFYPLVLVSELFKAAGISKDQS | soluble
MSTYSSPFSRLLHPFSSPPLRPHQDSTTRQTVFIYSSPPVNSSMATDNVRLERMEIGMQLLLLRMAEKDGEAEKLARAELITEANLGGQGETTQLNPLVPVSKATAEKLSNELDEVGRNRTARWSKSGRTCVVS | not soluble
MAHHHHHHMDFQNRVGHKTGSGMPLSREDINQERRERLKQLALENIDITKDPYILKNNVGMFECKLCLTLHNNESSYLCHTQGKKHQMNLAQRLLKEKNEMTTNRLNKPVSEPRKIVKIGKPRYDVTRVRNKKNQLGILFELSFPNIKENTKPKFRFMSSFEQKIEAPDKKYQYLLFAAEPYETIAFKIPNIDIDENEGFYYKWFDKKKIFVMQIHFQNAFPPGHVNLREHSNFLSSTNRW | not soluble
